Experiments:
[1] = molecular target: human ErbB-2 (HER2) (human) (UniProt P04626); assay: FACS on stable K562-HER2 cells; negative control
[2] = molecular target: human ErbB-2 (HER2) (human) (UniProt P04626); assay: cell-based or functional assay

Row | MFI [1] | MCF-7 IC50 (pM), HRG dependent proliferation [2] | Substance
1 | 276 MFI |  | Anti-RSV mAb (antibody)
2 |  | 352 pM | trastuzumab + pertuzumab (1:1)
